Assay results as given in patent US20110076262A1 (Genentech, published 2011).
Positions count from the first letter of the chain named. Names may count otherwise.

B1: chimeric anti-FGF19 antibody 1A6 (antibody, V domains shown)
VH: QVQLKQSGPGLVQPSQSLSITCTVSGFSLTTYGVHWVRQSPGKGLEWLGVIWPGGGTDYNAAFISRLSITKDNSKSQVFFKMNSLLANDTAIYFCVRKEYANLYAMDYWGQGTLLTVSA
VL: DIKMTQSPSSMYASLGERVTIPCKASQDINSFLSWFQQKPGKSPKTLIYRANRLVDGVPSRFSGSGSGQDYSLTISSLEYEDMGIYYCLQYDEFPLTFGAGTKVEIKR
notes: also called chimeric 1A6; ch1A6
B2: 1A6-graft (direct HVR-graft of 1A6), expressed as IgG (antibody, V domains shown)
VH: EVQLVESGGGLVQPGGSLRLSCAASGFSLTTYGVHWVRQAPGKGLEWVGVIWPGGGTDYNAAFISRFTISRDNSKNTLYLQMNSLRAEDTAVYYCVRKEYANLYAMDYWGQGTLVTVSS
VL: DIQMTQSPSSLSASVGDRVTITCKASQDINSFLSWYQQKPGKAPKLLIYRANRLVDGVPSRFSGSGSGTDFTLTISSLQPEDFATYYCLQYDEFPLTFGQGTKVEIKR
notes: Tested as IgG produced in 293 cells; also called 1A6 grafted antibody; 1A6 HVR graft
B3: hu1A6.V34A (HVR-H1) (antibody, name in Kabat numbering, V domains shown)
VH: B2 VH with V34A
VL: B2 VL
B4: hu1A6.Q90S (HVR-L3) (antibody, V domains shown)
VH: B2 VH
VL: B2 VL with Q90S
B5: hu1A6.V50L (HVR-H2) (antibody, name in Kabat numbering, V domains shown)
VH: B2 VH with V50L
VL: B2 VL
B6: hu1A6.H35Q (HVR-H1) (antibody, name in Kabat numbering, V domains shown)
VH: B2 VH with H35Q
VL: B2 VL
B7: hu1A6.A100bR (HVR-H3) (antibody, name in Kabat numbering, V domains shown)
VH: B2 VH with A105R
VL: B2 VL
B8: hu1A6.S34A (HVR-L1) (antibody, V domains shown)
VH: B2 VH
VL: B2 VL with S34A
B9: hu1A6.A100bP/M100kS (HVR-H3) (antibody, name in Kabat numbering, V domains shown)
VH: B2 VH with A105P, M106S
VL: B2 VL
notes: also called A100bP/M100cS
B10: hu1A6.S34T (HVR-L1) (antibody, V domains shown)
VH: B2 VH
VL: B2 VL with S34T
B11: hu1A6.S34A/D56S (HVR-L1/L2) (antibody, V domains shown)
VH: B2 VH
VL: B2 VL with S34A, D56S
notes: Humanized 1A6 variant as IgG
B12: hu1A6.S34G/D56S (HVR-L1/L2) (antibody, V domains shown)
VH: B2 VH
VL: B2 VL with S34G, D56S
notes: Humanized 1A6 variant as IgG

What follows are binders tested against T1, Human FGF19 (human, UniProt O95750 25-216) (assay: SPR (BIAcore 2000), IgG on chip, soluble human FGF19).
T1 construct: Recombinant soluble protein; also called huFGF19; Fibroblast growth factor 19
T1 sequence (O95750 25-216 limits assumed): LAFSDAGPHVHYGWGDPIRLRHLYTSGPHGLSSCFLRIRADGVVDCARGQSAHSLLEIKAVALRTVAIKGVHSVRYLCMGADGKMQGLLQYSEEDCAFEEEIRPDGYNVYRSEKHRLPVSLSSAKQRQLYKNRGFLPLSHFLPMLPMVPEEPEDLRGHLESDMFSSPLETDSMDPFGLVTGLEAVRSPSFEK
B1 was tested, and the “KD (fold weaker), against chimeric 1A6” value was 1 fold, the “Ka (fold slower), against chimeric 1A6” value was 1 fold and the “Kd (fold faster), against chimeric 1A6” value was 1 fold. B2 was tested, and the “KD (fold weaker), against chimeric 1A6” value was 58.1 fold, the “Ka (fold slower), against chimeric 1A6” value was 24.8 fold and the “Kd (fold faster), against chimeric 1A6” value was 2.3 fold. With B3 the “KD (fold weaker), against chimeric 1A6” value was 10.5 fold, the “Ka (fold slower), against chimeric 1A6” value was 12.5 fold and the “Kd (fold faster), against chimeric 1A6” value was 0.9 fold. In the case of B4, the “KD (fold weaker), against chimeric 1A6” value is reported as 16 fold, the “Ka (fold slower), against chimeric 1A6” value is reported as 10.4 fold and the “Kd (fold faster), against chimeric 1A6” value is reported as 1.5 fold. For B5, the “KD (fold weaker), against chimeric 1A6” value was 5.7 fold, the “Ka (fold slower), against chimeric 1A6” value was 6.3 fold and the “Kd (fold faster), against chimeric 1A6” value was 0.9 fold. B6 was tested, and the “KD (fold weaker), against chimeric 1A6” value was 6.6 fold, the “Ka (fold slower), against chimeric 1A6” value was 5 fold and the “Kd (fold faster), against chimeric 1A6” value was 1.3 fold. For B7, the “KD (fold weaker), against chimeric 1A6” value was 2.3 fold, the “Ka (fold slower), against chimeric 1A6” value was 2.6 fold and the “Kd (fold faster), against chimeric 1A6” value was 0.9 fold. For B8, the “KD (fold weaker), against chimeric 1A6” value was 9.1 fold, the “Ka (fold slower), against chimeric 1A6” value was 7.7 fold and the “Kd (fold faster), against chimeric 1A6” value was 1.2 fold. For B9, the “KD (fold weaker), against chimeric 1A6” value was 0.9 fold, the “Ka (fold slower), against chimeric 1A6” value was 1.7 fold and the “Kd (fold faster), against chimeric 1A6” value was 0.5 fold. B10 was tested, and the “KD (fold weaker), against chimeric 1A6” value was 14 fold, the “Ka (fold slower), against chimeric 1A6” value was 12 fold and the “Kd (fold faster), against chimeric 1A6” value was 1.2 fold.

The binders below were run against T2, Cynomolgus FGF19 (cynomolgus monkey) (assay: SPR (BIAcore 2000), IgG on chip, soluble cynomolgus FGF19).
T2 construct: also called Cyno FGF19; cynoFGF19
For B1, the Kd was 87 pM, the koff was 6.6e-05 s⁻¹ and the kon was 760000 M⁻¹ s⁻¹. Work on B11 yielded a Kd of 481 pM, a koff of 7.7e-05 s⁻¹ and a kon of 160000 M⁻¹ s⁻¹. Binder B12 has a Kd of 906 pM, a koff of 4.8e-05 s⁻¹ and a kon of 53000 M⁻¹ s⁻¹.

What follows are binders tested against T1, Human FGF19 (assay: solid phase receptor binding assay: antibody blocks FGF19 binding to plate-captured FGFR4-Fc).
Method: (§1) Maxisorb 96 well plates were coated overnight at 4° C. with 50 μl of 2 μg/ml anti-human immunoglobulin Fcγ fragment specific (Jackson Immunoresearch) and used to capture 1 μg/ml FGFR-Fc chimeric proteins (R & D Systems). The non-specific binding sites were saturated with PBS/3% BSA for 1 hour and FGF19 (0.25 μg/ml) was incubated for 2 h in PBS/0.3% BSA in the presence of oligosaccharides (0.5 μg/ml; Neoparin Inc.) and the indicated anti-FGF19 antibody (0-10 μg/ml). FGF19 binding was detected using a biotinylated FGF19 specific polyclonal antibody (0.5 μg/ml; BAF969; R & D Systems) followed by streptavidin-HRP and TMB colorimetric substrate.
(§2) Humanized anti-FGF19 antibody 1A6.v1 was characterized as follows: [0531] (1) In an assay to test ability of 1A6.v1 to block binding of FGF19 to its receptor, FGFR4, 1A6.v1 was able to block FGF19 binding to its receptor at least as well as one comparator antibody—namely a chimeric antibody (which comprised the variable regions from the murine parent 1A6 antibody (variable domains depicted in FIG. 8) fused to a human Fc region). […] [0532] (2) 1A6.v1 was also tested for cross-species binding among human and primate (Cynomolgus macaque monkey). […] [0533] (3) 1A6.v1 was tested for in vitro efficacy using a colon tumor cell line (HCT116 cells). […] [0534] […]
For B1, the IC50 was 4500 pM.

The binders below were run against T1, Human FGF19 (assay: SPR (Biacore), 1A6-graft as IgG, soluble human FGF19; reference chimeric 1A6).
B2 was tested, and the “fold reduction of binding affinity relative to chimeric 1A6” value was over 50 fold.

The binders below were run against T1, Human FGF19 (assay: Solid phase receptor binding assay: FGFR4-Fc captured on an anti-human Fc plate, FGF19 (0.25 µg/ml) incubated with titrated anti-FGF19 antibody, bound FGF19 detected with biotinylated polyclonal anti-FGF19 / streptavidin-HRP (OD 450 nm); blocked ligand-receptor pair FGF19/FGFR4).
Method: as §1, §2
With B1 the IC50 was 0.675 µg/mL.

Target: T1, Human FGF19
Test: SPR (BIAcore 2000), IgG on chip, soluble human FGF19
Remark: another data set of the same source
With B1 the Kd was 32 pM, the koff was 5.4e-05 s⁻¹ and the kon was 1.7e+06 M⁻¹ s⁻¹. Work on B11 yielded a Kd of 118 pM, a koff of 4.6e-05 s⁻¹ and a kon of 390000 M⁻¹ s⁻¹. In the case of B12, the Kd is reported as 114 pM, the koff is reported as 1.6e-05 s⁻¹ and the kon is reported as 140000 M⁻¹ s⁻¹.

Target: T1, Human FGF19
Test: as above
Remark: another data set of the same source
For B1, the Kd was 36 pM, the koff was 5.3e-05 s⁻¹ and the kon was 1.47e+06 M⁻¹ s⁻¹. B2 gave a Kd of 2090 pM, a koff of 0.000124 s⁻¹ and a kon of 59300 M⁻¹ s⁻¹.
